Source: PMC6422896, “CrgA Protein Represses AlkB2 Monooxygenase and Regulates the Degradation of Medium-to-Long-Chain n-Alkanes in Pseudomonas aeruginosa SJTD-1” (Frontiers in Microbiology, 2019)

T1: CrgA (Pseudomonas aeruginosa SJTD-1, UniProt Q9I4D7 1-304)
T1 sequence: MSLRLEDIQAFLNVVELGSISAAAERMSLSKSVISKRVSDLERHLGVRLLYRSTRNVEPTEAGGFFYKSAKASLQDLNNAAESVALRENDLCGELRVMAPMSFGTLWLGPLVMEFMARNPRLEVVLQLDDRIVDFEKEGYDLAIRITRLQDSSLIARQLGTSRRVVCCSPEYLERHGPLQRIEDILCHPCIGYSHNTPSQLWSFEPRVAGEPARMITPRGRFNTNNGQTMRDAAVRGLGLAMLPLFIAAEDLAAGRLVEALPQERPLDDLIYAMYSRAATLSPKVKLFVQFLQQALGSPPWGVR

B1: alkB2-U46 (dsDNA)
DNA 1: AGGACAATTGTCAGACAATCTAACAAGATAAATACGAGGACTTCCC
DNA 2: GGGAAGTCCTCGTATTTATCTTGTTAGATTGTCTGACAATTGTCCT
B2: alkB2-b2 (dsDNA)
DNA 1: AGGACAATTGTCAGACAATCTAACAAGCGGCGGACAGAACGAAGATAAATACGAGGACTTCCC
DNA 2: GGGAAGTCCTCGTATTTATCTTCGTTCTGTCCGCCGCTTGTTAGATTGTCTGACAATTGTCCT
B3: alkB2-b1 (dsDNA)
DNA 1: AGGACAATTGTCAGACAATCTAACAGGGATGGGGCAGGCCGGCCAAGGGAGATAAATACGAGGACTTCCC
DNA 2: GGGAAGTCCTCGTATTTATCTCCCTTGGCCGGCCTGCCCCATCCCTGTTAGATTGTCTGACAATTGTCCT

Molecular target: T1, CrgA
Test: EMSA; EMSA: 20 mM Tris-HCl, 50 mM NaCl, 1 mM DTT, 0.1 mM EDTA, pH 7.5, 37 C 30 min, 4 pmol DNA in 20 uL, 8% native PAGE; footprinting at 25 C
Conditions: protein: recombinant; tags: His-tag (pET28a, Ni-NTA; NdeI/BamHI cloning, N-terminal tag likely); chain copies: 4; label: 5'-FAM on strand 2; blunt

| Binder | binding result |
| --- | --- |
| B1 | no binding |
| B2 | binds |
| B3 | binds |
